Values joined by “and” are separate entries in the source; they are usually repeats but may differ in a detail not shown here. Identical values can stand only once.
B1: LDL receptor (LDLR) on human glioblastoma multiforme cells (receptor)
chain: not shown
notes: whole, on cells; also called cell surface LDLR

Experiments:
[1] = molecular target: T1, native plasma LDL (low density lipoprotein; LDLR ligand apoB100 on its surface) (human, UniProt P04114 28-4563); assay: ^125I-LDL saturation binding to SF-767 cells
T1 construct: Lipoprotein particle isolated from plasma; also called native LDL

[2] = molecular target: T1, native plasma LDL (low density …); assay: ^125I-LDL saturation binding to SF-763 cells
[3] = molecular target: T1, native plasma LDL (low density …); assay: ^125I-LDL saturation binding to U-251 MG cells (average of 2 experiments)
[4] = molecular target: T1, native plasma LDL (low density …); assay: ^125I-LDL saturation binding to U-343 MG cells
[5] = molecular target: T1, native plasma LDL (low density …); assay: ^125I-LDL saturation binding to A-172 cells
[6] = molecular target: T1, native plasma LDL (low density …); assay: ^125I-LDL saturation binding to SF-539 cells
[7] = molecular target: B1; assay: cell-based or functional assay

T1 sequence (P04114 28-4563 limits assumed): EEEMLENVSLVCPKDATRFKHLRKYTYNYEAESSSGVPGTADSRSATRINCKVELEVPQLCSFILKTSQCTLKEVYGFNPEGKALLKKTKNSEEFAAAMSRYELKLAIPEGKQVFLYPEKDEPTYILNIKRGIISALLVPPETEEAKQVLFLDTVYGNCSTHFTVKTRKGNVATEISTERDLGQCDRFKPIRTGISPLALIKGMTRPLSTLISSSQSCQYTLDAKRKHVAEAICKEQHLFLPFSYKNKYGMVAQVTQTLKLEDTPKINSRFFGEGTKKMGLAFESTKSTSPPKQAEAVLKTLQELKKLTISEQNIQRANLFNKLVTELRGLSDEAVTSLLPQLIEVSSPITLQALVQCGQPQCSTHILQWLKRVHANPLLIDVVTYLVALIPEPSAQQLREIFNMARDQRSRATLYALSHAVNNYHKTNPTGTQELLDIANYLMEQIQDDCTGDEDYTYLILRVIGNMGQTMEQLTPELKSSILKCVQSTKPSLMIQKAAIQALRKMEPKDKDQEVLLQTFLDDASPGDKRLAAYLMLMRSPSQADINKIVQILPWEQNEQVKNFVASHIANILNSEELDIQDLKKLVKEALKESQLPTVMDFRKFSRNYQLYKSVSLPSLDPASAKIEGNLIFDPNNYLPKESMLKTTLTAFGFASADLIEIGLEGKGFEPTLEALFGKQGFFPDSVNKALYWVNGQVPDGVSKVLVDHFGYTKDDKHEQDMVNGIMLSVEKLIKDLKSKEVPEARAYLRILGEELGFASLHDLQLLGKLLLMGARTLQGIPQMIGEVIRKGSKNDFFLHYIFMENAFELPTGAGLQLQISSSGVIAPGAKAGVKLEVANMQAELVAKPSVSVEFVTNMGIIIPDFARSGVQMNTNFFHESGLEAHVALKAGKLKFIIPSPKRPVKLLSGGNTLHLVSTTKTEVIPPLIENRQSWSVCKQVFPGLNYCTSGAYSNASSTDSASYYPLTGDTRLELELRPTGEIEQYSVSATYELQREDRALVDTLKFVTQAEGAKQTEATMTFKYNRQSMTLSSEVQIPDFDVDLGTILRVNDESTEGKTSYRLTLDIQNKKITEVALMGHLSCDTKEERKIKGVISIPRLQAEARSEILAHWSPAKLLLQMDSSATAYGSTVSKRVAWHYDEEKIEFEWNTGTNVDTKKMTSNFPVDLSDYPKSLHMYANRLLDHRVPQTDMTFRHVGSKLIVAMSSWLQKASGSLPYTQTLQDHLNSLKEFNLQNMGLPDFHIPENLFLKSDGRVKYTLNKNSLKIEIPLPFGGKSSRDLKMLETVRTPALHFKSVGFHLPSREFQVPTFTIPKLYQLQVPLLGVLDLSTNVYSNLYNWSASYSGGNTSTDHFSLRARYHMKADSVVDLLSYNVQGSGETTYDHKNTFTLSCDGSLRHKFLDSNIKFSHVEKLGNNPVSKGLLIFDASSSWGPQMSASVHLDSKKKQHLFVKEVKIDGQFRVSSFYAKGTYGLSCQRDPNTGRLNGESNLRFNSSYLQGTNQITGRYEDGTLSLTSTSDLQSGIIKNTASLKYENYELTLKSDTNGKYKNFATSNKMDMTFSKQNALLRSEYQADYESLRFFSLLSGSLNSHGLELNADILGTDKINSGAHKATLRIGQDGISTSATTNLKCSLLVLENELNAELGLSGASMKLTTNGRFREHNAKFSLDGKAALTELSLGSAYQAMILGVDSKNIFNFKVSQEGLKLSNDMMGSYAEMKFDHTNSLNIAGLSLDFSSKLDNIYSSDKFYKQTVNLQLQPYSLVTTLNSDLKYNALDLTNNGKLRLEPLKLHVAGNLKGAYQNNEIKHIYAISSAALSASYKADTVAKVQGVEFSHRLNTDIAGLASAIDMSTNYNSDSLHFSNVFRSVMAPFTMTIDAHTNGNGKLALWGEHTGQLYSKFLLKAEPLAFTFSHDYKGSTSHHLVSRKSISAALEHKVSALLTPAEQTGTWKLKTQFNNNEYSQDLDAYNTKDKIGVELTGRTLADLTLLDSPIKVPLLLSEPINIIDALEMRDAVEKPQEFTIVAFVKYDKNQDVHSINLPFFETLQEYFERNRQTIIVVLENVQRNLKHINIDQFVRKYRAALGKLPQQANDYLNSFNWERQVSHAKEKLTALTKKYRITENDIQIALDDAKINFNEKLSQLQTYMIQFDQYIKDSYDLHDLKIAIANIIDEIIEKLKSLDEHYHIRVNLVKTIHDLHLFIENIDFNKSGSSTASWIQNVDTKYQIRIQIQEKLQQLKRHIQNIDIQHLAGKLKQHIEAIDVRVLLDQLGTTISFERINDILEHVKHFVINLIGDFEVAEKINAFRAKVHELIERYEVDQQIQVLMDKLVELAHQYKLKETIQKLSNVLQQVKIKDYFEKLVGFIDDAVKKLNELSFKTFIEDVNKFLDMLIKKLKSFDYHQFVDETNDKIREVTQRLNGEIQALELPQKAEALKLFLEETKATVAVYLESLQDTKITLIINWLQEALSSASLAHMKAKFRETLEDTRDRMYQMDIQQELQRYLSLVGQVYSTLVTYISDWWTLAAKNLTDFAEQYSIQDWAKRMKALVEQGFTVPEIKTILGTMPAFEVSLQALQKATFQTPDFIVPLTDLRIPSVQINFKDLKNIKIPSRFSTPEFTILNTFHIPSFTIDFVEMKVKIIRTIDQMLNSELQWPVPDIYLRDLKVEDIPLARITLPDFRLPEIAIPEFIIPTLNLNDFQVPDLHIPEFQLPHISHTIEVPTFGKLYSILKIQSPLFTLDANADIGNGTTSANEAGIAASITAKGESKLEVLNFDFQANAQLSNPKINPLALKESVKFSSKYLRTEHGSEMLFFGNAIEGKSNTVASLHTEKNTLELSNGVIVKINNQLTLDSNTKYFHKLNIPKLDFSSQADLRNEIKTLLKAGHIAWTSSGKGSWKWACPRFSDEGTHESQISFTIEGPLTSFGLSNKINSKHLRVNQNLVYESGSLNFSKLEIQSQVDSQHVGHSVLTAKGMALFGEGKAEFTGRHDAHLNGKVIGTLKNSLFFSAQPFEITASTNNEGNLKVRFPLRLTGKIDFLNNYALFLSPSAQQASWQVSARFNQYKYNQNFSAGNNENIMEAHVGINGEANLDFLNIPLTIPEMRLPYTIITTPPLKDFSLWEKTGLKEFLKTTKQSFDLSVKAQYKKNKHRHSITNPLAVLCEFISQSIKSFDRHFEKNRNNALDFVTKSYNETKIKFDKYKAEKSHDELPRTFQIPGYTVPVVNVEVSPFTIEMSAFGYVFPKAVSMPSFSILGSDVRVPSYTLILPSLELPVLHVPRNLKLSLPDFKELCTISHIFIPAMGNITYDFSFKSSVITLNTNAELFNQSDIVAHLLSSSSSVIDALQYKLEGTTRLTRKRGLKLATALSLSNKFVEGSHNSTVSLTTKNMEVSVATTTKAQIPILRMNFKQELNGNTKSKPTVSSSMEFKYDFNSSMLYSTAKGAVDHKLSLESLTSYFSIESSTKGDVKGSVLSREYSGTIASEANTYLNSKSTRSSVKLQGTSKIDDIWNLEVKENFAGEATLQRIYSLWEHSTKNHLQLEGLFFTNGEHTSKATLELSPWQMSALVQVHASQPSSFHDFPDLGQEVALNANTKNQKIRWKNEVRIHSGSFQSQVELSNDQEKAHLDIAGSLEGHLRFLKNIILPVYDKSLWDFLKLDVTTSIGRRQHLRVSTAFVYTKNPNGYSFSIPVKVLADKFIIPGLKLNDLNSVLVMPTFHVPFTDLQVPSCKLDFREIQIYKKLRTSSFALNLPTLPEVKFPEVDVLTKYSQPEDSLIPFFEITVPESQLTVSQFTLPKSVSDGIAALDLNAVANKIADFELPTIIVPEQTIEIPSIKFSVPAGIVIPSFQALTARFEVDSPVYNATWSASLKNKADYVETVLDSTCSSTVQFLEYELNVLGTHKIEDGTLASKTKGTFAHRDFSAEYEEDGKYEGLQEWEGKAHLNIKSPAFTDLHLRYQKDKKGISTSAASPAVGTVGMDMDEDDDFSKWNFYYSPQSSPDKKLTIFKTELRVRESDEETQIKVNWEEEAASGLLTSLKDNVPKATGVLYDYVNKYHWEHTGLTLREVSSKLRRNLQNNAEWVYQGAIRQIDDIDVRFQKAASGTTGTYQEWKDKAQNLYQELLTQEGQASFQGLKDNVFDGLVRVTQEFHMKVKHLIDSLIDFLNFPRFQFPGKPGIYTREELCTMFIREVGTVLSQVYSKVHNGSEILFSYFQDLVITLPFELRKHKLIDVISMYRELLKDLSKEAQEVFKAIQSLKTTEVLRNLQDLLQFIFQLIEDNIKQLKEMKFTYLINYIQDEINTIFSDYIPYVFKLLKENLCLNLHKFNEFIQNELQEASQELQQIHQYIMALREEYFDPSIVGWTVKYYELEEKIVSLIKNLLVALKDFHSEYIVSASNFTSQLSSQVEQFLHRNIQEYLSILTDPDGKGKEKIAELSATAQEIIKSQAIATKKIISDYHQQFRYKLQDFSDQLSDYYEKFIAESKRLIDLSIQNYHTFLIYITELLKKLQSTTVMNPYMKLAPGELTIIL

Binder	Kd [1]	Kd [2]	Kd [3]	Kd [4]	Kd [5]	Kd [6]	IC50 of SF-763 cell killing, 6 hrs incubation with sLDL-PO, 72 hr total [7] [µM]	IC50 of SF-767 cell killing, 1 hr incubation with sLDL-PO, 72 hr total [7] [µM]	IC50 of SF-767 cell killing, 3 hr incubation with sLDL-PO, 72 hr total [7] [µM]	IC50 of SF-767 cell killing, 6 hr incubation with sLDL-PO, 72 hr total [7] [µM]	IC50 of SF-767 cell killing, 6 hrs incubation with sLDL-PO, 72 hr total [7] [µM]	IC50 of SF-767 cell killing, 12 hr incubation with sLDL-PO, 72 hr total [7] [µM]	IC50 of U-251 cell killing, 6 hrs incubation with sLDL-PO, 72 hr total [7] [µM]
B1	3.5 µg/mL and 6.98 nM	60 µg/mL and 120 nM	38 µg/mL and 76 nM	40 µg/mL and 80 nM	62 µg/mL and 124 nM	50 µg/mL and 100 nM	–	–	–	–	–	–	–
Ac-DWLKAFYDKVAEKLKEAFRLTRKRGLKLA-NH2 (also: sLDL particle with paclitaxel oleate in lipid core, not covalently bound) [synthetic LDL containing paclitaxel oleate (sLDL-PO)]	–	–	–	–	–	–	2	20	15	10	7	10	7

Reference: patent publication US20100047163A1 (LAWRENCE BERKELEY NATIONAL LABORATORY, published 2010)
